The record followed here is the Immune Epitope Database (IEDB).

The term IC50 denotes the concentration that gives 50% inhibition.

In one assay the target is HLA-A*68:02. The assay can be described thus: IEDB peptide-MHC binding, cellular MHC/competitive/fluorescence; ≥ and ≤ were set here for values at or beyond the usual limits of such assays.
For a further assay, the target named is HLA-A*02:01. The assay can be described thus: IEDB peptide-MHC binding, purified MHC/competitive/radioactivity; ≥ and ≤ were set here for values at or beyond the usual limits of such assays.
For another assay, the target named is HLA-A*02:02. The description is as above.
The target of a further assay is HLA-A*02:03. The assay is described as above.
Another assay has as its target HLA-A*02:06. The assay is described as above.
Setting [1] is: source organism: Vaccinia virus WR.
The mark [2] stands for this setting: source organism: Hepacivirus hominis.

ITLILSNKLL: the IC50 in the assay with HLA-A*68:02 (setting [1]) stood at 6.49 µM; with HLA-A*02:01 (setting [1]), 2200 nM; in the assay with HLA-A*02:02 (setting [1]), 1090 nM; with HLA-A*02:03 (setting [1]), 4690 nM; in the assay with HLA-A*02:06 (setting [1]), 3890 nM.
For the sequence GMQFDKVYL, the IC50 with HLA-A*68:02 (setting [1]) stood at 17.2 µM; with HLA-A*02:01 (setting [1]), 72 nM; with HLA-A*02:02 (setting [1]) it was 13 nM; in the assay with HLA-A*02:03 (setting [1]), 277 nM; in the assay with HLA-A*02:06 (setting [1]) it was 1900 nM.
Turning to LLSTTEWQV, the IC50 with HLA-A*68:02 (setting [2]) was 27.3 µM; with HLA-A*02:01 (setting [2]) it was 67 nM; in the assay with HLA-A*02:02 (setting [2]) it was 4.9 nM; in the assay with HLA-A*02:03 (setting [2]), 95 nM; in the assay with HLA-A*02:06 (setting [2]), 333 nM.
On to YISRDELWA, for which the IC50 with HLA-A*68:02 (setting [1]) was determined as 52.7 µM; with HLA-A*02:01 (setting [1]), 750 nM; in the assay with HLA-A*02:02 (setting [1]) it was 333 nM; with HLA-A*02:03 (setting [1]), 242 nM; in the assay with HLA-A*02:06 (setting [1]) it was 1200 nM.
Consider FLYIIKLVFL, for which the 50% inhibitory concentration (IC50) with HLA-A*68:02 (source organism: SARS-CoV1) stood at 26.4 µM; in the assay with HLA-A*02:01 (source organism: SARS-CoV1), 19 nM; in the assay with HLA-A*02:02 (source organism: SARS-CoV1), 7.3 nM; with HLA-A*02:03 (source organism: SARS-CoV1) it was 22 nM; with HLA-A*02:06 (source organism: SARS-CoV1), 865 nM.
For SILSLETVKM, the concentration for half-maximal inhibition (IC50) in the assay with HLA-A*68:02 (setting [1]) was 11.1 µM; in the assay with HLA-A*02:01 (setting [1]), 1310 nM; with HLA-A*02:02 (setting [1]), 203 nM; in the assay with HLA-A*02:03 (setting [1]), 455 nM; with HLA-A*02:06 (setting [1]) it was 806 nM.
For DLLFNEKLKV, in that order: 9.97 µM, 149 nM, 357 nM, 317 nM and 2020 nM.
For SMYVIPDEL, in that order: 7.09 µM, 91 nM, 5 nM, 13 nM and 2820 nM.
On to TLLLWISVKV, for which the IC50 with HLA-A*68:02 (source organism: SARS-CoV1) worked out at 15.7 µM; in the assay with HLA-A*02:01 (source organism: SARS-CoV1) it was 253 nM; with HLA-A*02:02 (source organism: SARS-CoV1), 549 nM; with HLA-A*02:03 (source organism: SARS-CoV1), 1060 nM; with HLA-A*02:06 (source organism: SARS-CoV1), 875 nM.
Turning to CLWWTCYMLV, the 50% inhibitory concentration (IC50) came out at 10.3 µM with HLA-A*68:02 (setting [2]); 271 nM with HLA-A*02:01 (setting [2]); 1870 nM with HLA-A*02:02 (setting [2]); 891 nM in the assay with HLA-A*02:03 (setting [2]); 2700 nM with HLA-A*02:06 (setting [2]).
Consider ALYGVWPLLL, for which the IC50 with HLA-A*68:02 (setting [2]) came out at 20.6 µM; in the assay with HLA-A*02:01 (setting [2]), 9 nM; with HLA-A*02:02 (setting [2]) it was 8.9 nM; in the assay with HLA-A*02:03 (setting [2]), 7.5 nM; in the assay with HLA-A*02:06 (setting [2]), 166 nM.
For GLLYFILFFV, in that order: 23.2 µM, 51 nM, 141 nM, 187 nM and 678 nM.
For IMRNFLRSIA, the IC50 in the assay with HLA-A*68:02 (setting [1]) came to 54.2 µM; in the assay with HLA-A*02:01 (setting [1]) it was 813 nM; with HLA-A*02:02 (setting [1]), 60 nM; with HLA-A*02:03 (setting [1]), 122 nM; with HLA-A*02:06 (setting [1]), 544 nM.
Regarding LLLENKSLTI, the half-inhibitory concentration (IC50) in the assay with HLA-A*68:02 (setting [1]) is 9.58 µM; with HLA-A*02:01 (setting [1]), 439 nM; with HLA-A*02:02 (setting [1]), 982 nM; with HLA-A*02:03 (setting [1]), 985 nM; with HLA-A*02:06 (setting [1]), 1320 nM.
For the sequence ILDNLRCHSA, the half-inhibitory concentration (IC50) with HLA-A*68:02 (setting [1]) was found to be 12.8 µM; with HLA-A*02:01 (setting [1]), 63 nM; in the assay with HLA-A*02:02 (setting [1]), 972 nM; with HLA-A*02:03 (setting [1]) it was 69 nM; with HLA-A*02:06 (setting [1]) it was 297 nM.
For the sequence VLWTVFHGA, the half-maximal inhibitory concentration (IC50) with HLA-A*68:02 (setting [2]) came to 34.8 µM; in the assay with HLA-A*02:01 (setting [2]), 100 nM; with HLA-A*02:02 (setting [2]) it was 759 nM; with HLA-A*02:03 (setting [2]), 836 nM; in the assay with HLA-A*02:06 (setting [2]), 189 nM.
As to YLLMHLVSL, the half-inhibitory concentration (IC50) in the assay with HLA-A*68:02 (setting [1]) stood at 7.75 µM; in the assay with HLA-A*02:01 (setting [1]), 3.5 nM; with HLA-A*02:02 (setting [1]) it was 0.18 nM; with HLA-A*02:03 (setting [1]) it was 1.4 nM; with HLA-A*02:06 (setting [1]), 0.25 nM.
As for LLNMRDLIV, the IC50 was found to be 23.2 µM with HLA-A*68:02 (setting [1]); 42 nM with HLA-A*02:01 (setting [1]); 665 nM with HLA-A*02:02 (setting [1]); 1.2 nM with HLA-A*02:03 (setting [1]); 225 nM in the assay with HLA-A*02:06 (setting [1]).
As to FMLCLLLLSV, the IC50 was determined as 28.1 µM with HLA-A*68:02 (setting [2]); 149 nM in the assay with HLA-A*02:01 (setting [2]); 472 nM in the assay with HLA-A*02:02 (setting [2]); 315 nM with HLA-A*02:03 (setting [2]); 194 nM in the assay with HLA-A*02:06 (setting [2]).
As for ILDNAAKYV, the concentration for half-maximal inhibition (IC50) with HLA-A*68:02 (setting [1]) was 22.7 µM; with HLA-A*02:01 (setting [1]) it was 14 nM; with HLA-A*02:02 (setting [1]) it was 126 nM; with HLA-A*02:03 (setting [1]), 261 nM; in the assay with HLA-A*02:06 (setting [1]) it was 1810 nM.
For the sequence ALMTLDDLAI, the IC50 with HLA-A*68:02 (setting [1]) was found to be 7.7 µM; with HLA-A*02:01 (setting [1]) it was 0.74 nM; with HLA-A*02:02 (setting [1]) it was 14 nM; in the assay with HLA-A*02:03 (setting [1]), 29 nM; in the assay with HLA-A*02:06 (setting [1]), 24 nM.
With KLLNMRDLI, the concentration for half-maximal inhibition (IC50) with HLA-A*68:02 (setting [1]) worked out at 30.2 µM; with HLA-A*02:01 (setting [1]), 18 nM; in the assay with HLA-A*02:02 (setting [1]), 496 nM; in the assay with HLA-A*02:03 (setting [1]), 329 nM; with HLA-A*02:06 (setting [1]), 44 nM.
For ILHNIYRLFT, in that order: 40.9 µM, 231 nM, 125 nM, 11 nM and 1210 nM.
